Measured values: patent publication US20210040184A1 (ATRECA, published 2021)
Positions count from the first letter of the chain named.

Experiments:
Assay in all cases: cell-based or functional assay
[1] = target: T1, HIV-1 DU172.17 envelope (Env) on Env.IMC.LucR virus (HIV-1 clade C)
[2] = target: T2, HIV-1 CAP45.2.00.G3 envelope (Env) on Env.IMC.LucR virus (HIV-1 clade C)
[3] = target: T3, HIV-1 CNE20 envelope (Env) on Env.IMC.LucR virus (HIV-1 clade BC)
[4] = target: T4, HIV-1 REJO4541.67 envelope (Env) on Env.IMC.LucR virus (HIV-1 clade B)
[5] = target: T5, HIV-1 X1632_S2_B10 envelope (Env) on Env.IMC.LucR virus (HIV-1 clade G)
[6] = target: T6, HIV-1 AC10.0.29 envelope (Env) on Env.IMC.LucR virus (HIV-1 clade B)
[7] = target: T7, HIV-1 DU422.1 envelope (Env) on Env.IMC.LucR virus (HIV-1 clade C)
[8] = target: T1, HIV-1 DU172.17 envelope (Env) on …; remark: listed apart in the source
[9] = target: HIV-1 THRO4156.18 envelope (Env) on Env.IMC.LucR virus (HIV-1 clade B)
[10] = target: T2, HIV-1 CAP45.2.00.G3 envelope (Env) on …; remark: listed apart in the source
[11] = target: T3, HIV-1 CNE20 envelope (Env) on …; remark: listed apart in the source
[12] = target: T4, HIV-1 REJO4541.67 envelope (Env) on …; remark: listed apart in the source
[13] = target: T5, HIV-1 X1632_S2_B10 envelope (Env) on …; remark: listed apart in the source
[14] = target: HIV-1 WITO4160.33 envelope (Env) on Env.IMC.LucR virus (HIV-1 clade B)
[15] = target: T6, HIV-1 AC10.0.29 envelope (Env) on …; remark: listed apart in the source
[16] = target: HIV-1 ZM233M.PB6 envelope (Env) on Env.IMC.LucR virus (HIV-1 clade C)
[17] = target: T7, HIV-1 DU422.1 envelope (Env) on …; remark: listed apart in the source
[18] = target: T1, HIV-1 DU172.17 envelope (Env) on …; remark: listed apart in the source

B1: NVS49-L1A2 (antibody, V domains shown)
VH: ADLVQSGAVVKKPGDSVRISCEAQGYRFPDYIIHWIRRAPGQGPEWMGWMNPMGGQVNIPWKFQGRVSMTRDTSIETAFLDLRGLKSDDTAVYYCVRDRSNGSGKRFESSNWFLDLWGRGTAVTIQS
VL: QSALTQPRSVSASPGQSVTISCTGTHNLVSWCQHQPGRAPKLLIYDFNKRPSGVPDRFSGSGSGGTASLTITGLQDDDDAEYFCWAYEAFGGGTKLTVL
IC50 of virus neutralization (TZM-BL, luciferase); L1A2 lot CRO #1, 293 cells [1]: 0.268 µg/mL | IC50 of virus neutralization (TZM-BL, luciferase); L1A2 lot CRO #2, 293 cells [1]: 0.279 µg/mL | IC50 of virus neutralization (TZM-BL, luciferase); L1A2 lot CRO #2, CHO cells [1]: 0.507 µg/mL | IC50 of virus neutralization (TZM-BL, luciferase); L1A2 lot CRO #1, 293 cells [2]: 0.132 µg/mL | IC50 of virus neutralization (TZM-BL, luciferase); L1A2 lot CRO #2, 293 cells [2]: 0.209 µg/mL | IC50 of virus neutralization (TZM-BL, luciferase); L1A2 lot CRO #2, CHO cells [2]: 0.162 µg/mL | IC50 of virus neutralization (TZM-BL, luciferase); L1A2 lot CRO #1, 293 cells [3]: 0.089 µg/mL | IC50 of virus neutralization (TZM-BL, luciferase); L1A2 lot CRO #2, 293 cells [3]: 0.124 µg/mL | IC50 of virus neutralization (TZM-BL, luciferase); L1A2 lot CRO #2, CHO cells [3]: 0.092 µg/mL | IC50 of virus neutralization (TZM-BL, luciferase); L1A2 lot CRO #1, 293 cells [4]: 0.054 µg/mL | IC50 of virus neutralization (TZM-BL, luciferase); L1A2 lot CRO #2, 293 cells [4]: 0.072 µg/mL | IC50 of virus neutralization (TZM-BL, luciferase); L1A2 lot CRO #2, CHO cells [4]: 0.045 µg/mL | IC50 of virus neutralization (TZM-BL, luciferase); L1A2 lot CRO #1, 293 cells [5]: > 50 µg/mL | IC50 of virus neutralization (TZM-BL, luciferase); L1A2 lot CRO #2, 293 cells [5]: > 50 µg/mL | IC50 of virus neutralization (TZM-BL, luciferase); L1A2 lot CRO #2, CHO cells [5]: > 50 µg/mL | IC50 of virus neutralization (TZM-BL, luciferase); L1A2 lot CRO #1, 293 cells [6]: > 50 µg/mL | IC50 of virus neutralization (TZM-BL, luciferase); L1A2 lot CRO #2, 293 cells [6]: > 50 µg/mL | IC50 of virus neutralization (TZM-BL, luciferase); L1A2 lot CRO #2, CHO cells [6]: > 50 µg/mL | IC50 of virus neutralization (TZM-BL, luciferase); L1A2 lot CRO #1, 293 cells [7]: > 50 µg/mL | IC50 of virus neutralization (TZM-BL, luciferase); L1A2 lot CRO #2, 293 cells [7]: > 50 µg/mL | IC50 of virus neutralization (TZM-BL, luciferase); L1A2 lot CRO #2, CHO cells [7]: > 50 µg/mL | IC50 of virus neutralization (TZM-BL, luciferase) [8]: 0.279 µg/mL | IC50 of virus neutralization (TZM-BL, luciferase) [9]: 1.04 µg/mL | IC50 of virus neutralization (TZM-BL, luciferase) [10]: 0.209 µg/mL | IC50 of virus neutralization (TZM-BL, luciferase) [11]: 0.124 µg/mL | IC50 of virus neutralization (TZM-BL, luciferase) [12]: 0.072 µg/mL | IC50 of virus neutralization (TZM-BL, luciferase) [13]: > 50 µg/mL | IC50 of virus neutralization (TZM-BL, luciferase) [14]: 0.2 µg/mL | IC50 of virus neutralization (TZM-BL, luciferase) [15]: > 50 µg/mL | IC50 of virus neutralization (TZM-BL, luciferase) [16]: 0.613 µg/mL | IC50 of virus neutralization (TZM-BL, luciferase) [17]: > 50 µg/mL

B2: NglycoND (antibody, V domains shown)
VH: B1 VH with N101D
VL: B1 VL
fold increase in neutralization IC50 as compared to parent mAb L1A2 [18]: ~65 fold | IC50 of virus neutralization (TZM-BL, luciferase) [8]: 18.3 µg/mL | IC50 of virus neutralization (TZM-BL, luciferase) [10]: 0.077 µg/mL | IC50 of virus neutralization (TZM-BL, luciferase) [11]: > 50 µg/mL | IC50 of virus neutralization (TZM-BL, luciferase) [12]: 0.062 µg/mL | IC50 of virus neutralization (TZM-BL, luciferase) [13]: > 50 µg/mL | IC50 of virus neutralization (TZM-BL, luciferase) [15]: > 50 µg/mL | IC50 of virus neutralization (TZM-BL, luciferase) [17]: > 50 µg/mL
